Test results taken from US20250243277A1 (AVACTA LIFE SCIENCES, published 2025).
Residue numbers refer to the chain shown, from its start.

B1: Clone 56 (designed binder)
chain: MIPGGLSEAKPATPEIQEIVDKVKPQLEEKTGETYGKLEAVQYKTQVVGGRHRWNWSGTNYYIKVRAGDNKYMHLKVFKSLFEPSGLAAEEDLVLTGYQVDKNKDDELTGF
notes: His-tagged
B2: Clone 77 (designed binder)
chain: MIPGGLSEAKPATPEIQEIVDKVKPQLEEKTGETYGKLEAVQYKTQVVWDRPRWGWTGTNYYIKVRAGDNKYMHLKVFKSLFKESSRNDEEDLVLTGYQVDKNKDDELTGF
notes: His-tagged
B3: Clone 86 (designed binder)
chain: MIPGGLSEAKPATPEIQEIVDKVKPQLEEKTGETYGKLEAVQYKTQVVDVRGQWAWTGTNYYIKVRAGDNKYMHLKVFKSLFQPRTKATEEDLVLTGYQVDKNKDDELTGF
notes: His-tagged
B4: Clone 194 (designed binder)
chain: MIPGGLSEAKPATPEIQEIVDKVKPQLEEKTGETYGKLEAVQYKTQVVEERRIWNWTGTNYYIKVRAGDNKYMHLKVFKSLFTASDTHPAEDLVLTGYQVDKNKDDELTGF
notes: His-tagged
B5: Clone 84 (designed binder)
chain: MIPGGLSEAKPATPEIQEIVDKVKPQLEEKTGETYGKLEAVQYKTQVVLIRHLWSWSGTNYYIKVRAGDNKYMHLKVFKSLFEGENHQIDEDLVLTGYQVDKNKDDELTGF
notes: His-tagged
B6: Clone 149 (designed binder)
chain: MIPGGLSEAKPATPEIQEIVDKVKPQLEEKTGETYGKLEAVQYKTQVVKTLGVWHWSGTNYYIKVRAGDNKYMHLKVFKSLFEQHAENIEEDLVLTGYQVDKNKDDELTGF
notes: His-tagged
B7: Clone 114 (designed binder)
chain: MIPGGLSEAKPATPEIQEIVDKVKPQLEEKTGETYGKLEAVQYKTQVDQSSDLAKLWGTNYYIKVRAGDNKYMHLKVFKSLWNLNSDKSSEDLVLTGYQVDKNKDDELTGF
notes: His-tagged
B8: Clone 112 (designed binder)
chain: MIPGGLSEAKPATPEIQEIVDKVKPQLEEKTGETYGKLEAVQYKTQVDRFYHQWHFLGTNYYIKVRAGDNKYMHLKVFKSLDLRAPRNDNEDLVLTGYQVDKNKDDELTGF
notes: His-tagged
B9: Clone 115 (designed binder)
chain: B8 chain
notes: His-tagged
B10: Clone 1 (designed binder)
chain: MIPGGLSEAKPATPEIQEIVDKVKPQLEEKTGETYGKLEAVQYKTQVVVYHVRWNYLGTNYYIKVRAGDNKYMHLKVFKSLSLEEPPVETEDLVLTGYQVDKNKDDELTGF
notes: His-tagged
B11: Clone 102 (designed binder)
chain: MIPGGLSEAKPATPEIQEIVDKVKPQLEEKTGETYGKLEAVQYKTQVDRKAAVVARHGTNYYIKVRAGDNKYMHLKVFKSLWPFLVIEKYEDLVLTGYQVDKNKDDELTGF
notes: His-tagged
B12: Clone 110 (designed binder)
chain: MIPGGLSEAKPATPEIQEIVDKVKPQLEEKTGETYGKLEAVQYKTQVDHTQPKALDWGTNYYIKVRAGDNKYMHLKVFKSLWGSILTDGPEDLVLTGYQVDKNKDDELTGF
notes: His-tagged
B13: Clone 105 (designed binder)
chain: MIPGGLSEAKPATPEIQEIVDKVKPQLEEKTGETYGKLEAVQYKTQVDETSENVIQWGTNYYIKVRAGDNKYMHLKVFKSLWPADILTQHEDLVLTGYQVDKNKDDELTGF
notes: His-tagged
B14: Clone 40 (designed binder)
chain: MIPGGLSEAKPATPEIQEIVDKVKPQLEEKTGETYGKLEAVQYKTQVVKRRHFPQWQGTNYYIKVRAGDNKYMHLKVFKSLGDHLNQYPNEDLVLTGYQVDKNKDDELTGF
notes: His-tagged
B15: Clone 48 (designed binder)
chain: MIPGGLSEAKPATPEIQEIVDKVKPQLEEKTGETYGKLEAVQYKTQVVTRKHFPQYWGTNYYIKVRAGDNKYMHLKVFKSLNEPLPVTNIEDLVLTGYQVDKNKDDELTGF
notes: His-tagged
B16: Clone 184 (designed binder)
chain: MIPGGLSEAKPATPEIQEIVDKVKPQLEEKTGETYGKLEAVQYKTQVVHRKHFHQFTGTNYYIKVRAGDNKYMHLKVFKSLSNDYYETYLEDLVLTGYQVDKNKDDELTGF
notes: His-tagged
B17: Clone 246 (designed binder)
chain: MIPGGLSEAKPATPEIQEIVDKVKPQLEEKTGETYGKLEAVQYKTQVVERFHFPQFPGTNYYIKVRAGDNKYMHLKVFKSLPHLDYIWNWEDLVLTGYQVDKNKDDELTGF
notes: His-tagged
B18: Clone 247 (designed binder)
chain: MIPGGLSEAKPATPEIQEIVDKVKPQLEEKTGETYGKLEAVQYKTQVVRREHFPRWPGTNYYIKVRAGDNKYMHLKVFKSLDLLLRKEEVEDLVLTGYQVDKNKDDELTGF
notes: His-tagged
B19: Clone 175 (designed binder)
chain: MIPGGLSEAKPATPEIQEIVDKVKPQLEEKTGETYGKLEAVQYKTQVVWRRWFPQWPGTNYYIKVRAGDNKYMHLKVFKSLPEADADDPKEDLVLTGYQVDKNKDDELTGF
notes: His-tagged
B20: Clone 117 (designed binder)
chain: MIPGGLSEAKPATPEIQEIVDKVKPQLEEKTGETYGKLEAVQYKTQVDHEVRKTYEFGTNYYIKVRAGDNKYMHLKVFKSLWFGGWPLAQEDLVLTGYQVDKNKDDELTGF
notes: His-tagged
B21: Clone 196 (designed binder)
chain: MIPGGLSEAKPATPEIQEIVDKVKPQLEEKTGETYGKLEAVQYKTQVVLLWTPPYVDGTNYYIKVRAGDNKYMHLKVFKSLGWNDDHSVGEDLVLTGYQVDKNKDDELTGF
notes: His-tagged
B22: Clone 12 (designed binder)
chain: B21 chain with L49Q, W51K, T52F, D57S, N84D, D86K, H87P, S88E, V89W, G90D
notes: His-tagged
B23: Clone 108 (designed binder)
chain: MIPGGLSEAKPATPEIQEIVDKVKPQLEEKTGETYGKLEAVQYKTQVDREHASVKFWGTNYYIKVRAGDNKYMHLKVFKSLWLEATPHTQEDLVLTGYQVDKNKDDELTGF
notes: His-tagged
B24: Clone 109 (designed binder)
chain: MIPGGLSEAKPATPEIQEIVDKVKPQLEEKTGETYGKLEAVQYKTQVDISGVGLVPNGTNYYIKVRAGDNKYMHLKVFKSLNWNYPQQPFEDLVLTGYQVDKNKDDELTGF
notes: His-tagged
B25: Clone 10 (designed binder)
chain: MIPGGLSEAKPATPEIQEIVDKVKPQLEEKTGETYGKLEAVQYKTQVVDDVKNGFVQGTNYYIKVRAGDNKYMHLKVFKSLIDRHVYWLEEDLVLTGYQVDKNKDDELTGF
notes: His-tagged
B26: Clone 101 (designed binder)
chain: MIPGGLSEAKPATPEIQEIVDKVKPQLEEKTGETYGKLEAVQYKTQVDHHHRFAKWWGTNYYIKVRAGDNKYMHLKVFKSLWFNENREDTEDLVLTGYQVDKNKDDELTGF
notes: His-tagged
B27: Clone 107 (designed binder)
chain: MIPGGLSEAKPATPEIQEIVDKVKPQLEEKTGETYGKLEAVQYKTQVDFTDIHWSTWGTNYYIKVRAGDNKYMHLKVFKSLIPAWQQIHVEDLVLTGYQVDKNKDDELTGF
notes: His-tagged
B28: Clone 119 (designed binder)
chain: MIPGGLSEAKPATPEIQEIVDKVKPQLEEKTGETYGKLEAVQYKTQVDSWVFKPFYHGTNYYIKVRAGDNKYMHLKVFKSLSGPEFFSRHEDLVLTGYQVDKNKDDELTGF
notes: His-tagged
B29: Clone 95 (designed binder)
chain: MIPGGLSEAKPATPEIQEIVDKVKPQLEEKTGETYGKLEAVQYKTQVDTIHPQAKYWGTNYYIKVRAGDNKYMHLKVFKSLWKNLLKPIHEDLVLTGYQVDKNKDDELTGF
notes: His-tagged
B30: Clone 104 (designed binder)
chain: MIPGGLSEAKPATPEIQEIVDKVKPQLEEKTGETYGKLEAVQYKTQVDNAHPLVKNWGTNYYIKVRAGDNKYMHLKVFKSLWRNDTSSIYEDLVLTGYQVDKNKDDELTGF
notes: His-tagged
B31: Clone 11 (designed binder)
chain: MIPGGLSEAKPATPEIQEIVDKVKPQLEEKTGETYGKLEAVQYKTQVVEVQQQENFQGTNYYIKVRAGDNKYMHLKVFKSLHIYEHIVYREDLVLTGYQVDKNKDDELTGF
notes: His-tagged
B32: Clone 113 (designed binder)
chain: MIPGGLSEAKPATPEIQEIVDKVKPQLEEKTGETYGKLEAVQYKTQVDWVTRHHTLVGTNYYIKVRAGDNKYMHLKVFKSLPPFKHWHLEDLVLTGYQVDKNKDDELTGF
notes: His-tagged
B33: Clone 116 (designed binder)
chain: B32 chain
notes: His-tagged
B34: Clone 103 (designed binder)
chain: MIPGGLSEAKPATPEIQEIVDKVKPQLEEKTGETYGKLEAVQYKTQVDFSFPLVHWYGTNYYIKVRAGDNKYMHLKVFKSLRFRDGGHHVEDLVLTGYQVDKNKDDELTGF
notes: His-tagged
B35: Clone 118 (designed binder)
chain: MIPGGLSEAKPATPEIQEIVDKVKPQLEEKTGETYGKLEAVQYKTQVDVISIPLVWNGTNYYIKVRAGDNKYMHLKVFKSLIFQEYYPHREDLVLTGYQVDKNKDDELTGF
notes: His-tagged
B36: Clone 122 (designed binder)
chain: B35 chain with S51H, L54H, V55Q, N57H, Q84H, Y86P, Y87K, H89P
notes: His-tagged

biological target: T1, human PD-L1-Fc (R&D Systems) (human, UniProt Q9NZQ7 19-239); assay: soluble Affimer ELISA
T1 construct: Bought from R&D Systems; Biotinylated in-house for the phage selection; also called huPD-L1-Fc; human PD-L1-Fc antigen; not shown: Fc part of the bought fusion
T1 sequence (Q9NZQ7 19-239 limits assumed): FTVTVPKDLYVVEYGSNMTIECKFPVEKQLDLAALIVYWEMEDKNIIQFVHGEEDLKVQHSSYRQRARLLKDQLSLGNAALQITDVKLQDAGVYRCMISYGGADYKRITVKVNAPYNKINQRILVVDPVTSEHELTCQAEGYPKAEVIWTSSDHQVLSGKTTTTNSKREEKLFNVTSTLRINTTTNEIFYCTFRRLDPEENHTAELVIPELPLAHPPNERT

| binding result | Binder |
| --- | --- |
| binds | B1 |
| binds | B2 |
| binds | B3 |
| binds | B4 |
| binds | B5 |
| binds | B6 |
| binds | B7 |
| binds | B8 |
| binds | B9 |
| binds | B10 |
| binds | B11 |
| binds | B12 |
| binds | B13 |
| binds | B14 |
| binds | B15 |
| binds | B16 |
| binds | B17 |
| binds | B18 |

| binding result | Binder |
| --- | --- |
| binds | B19 |
| binds | B20 |
| binds | B21 |
| binds | B22 |
| binds | B23 |
| binds | B24 |
| binds | B25 |
| binds | B26 |
| binds | B27 |
| binds | B28 |
| binds | B29 |
| binds | B30 |
| binds | B31 |
| binds | B32 |
| binds | B33 |
| binds | B34 |
| binds | B35 |
| binds | B36 |
